The record followed here is patent US20260151389A1, “Use of Tetramethylpyrazine Nitrone Derivatives In The Treatment of Ischemic Stroke” (GUANGZHOU MAGPIE PHARMACEUTICALS CO., L.T.D., priority 2021, published 2026).

The experiment concerns patients with acute ischemic stroke. Put plainly: multicenter, randomized, double-blind, parallel clinical trial in acute ischemic stroke. The following applies: thrombolytic group. Type of experiment: in vivo, human. The text has this: The present invention adopts a multicenter, randomized, double-blind, parallel trial clinical research design. The patients with acute ischemic stroke included in the clinical trial-center as subjects (all signed informed consent forms) were divided into non-thrombolytic group and thrombolytic group. The non-thrombolytic group consists of the saline group and the TBN group. The thrombolytic group consists of the t-PA group and the combination group of TBN+t-PA.
Subjects of the tests: Patients diagnosed with acute ischemic stroke were selected by clinical trial centers based on the diagnostic criteria of “Chinese Guidelines for the Diagnosis and Treatment of Acute Ischemic Stroke (2018)”.
Administration method: TBN (1400 mg) is dissolved in a sodium chloride injection bag (specification: 100 mL) and administered intravenously for 30 minutes. Dose of t-PA: 0.9 mg/Kg/dose; usage: added to physiological saline, 10% of the dose is administered via injected intravenous injection immediately within 1-2 minutes, and the remaining 90% is administered via intravenous drop infusion within 60 minutes. t-PA is administered only once on the first day of acute ischemic stroke. The medication schedule of TBN: D1-D7 administered twice a day, with an interval of 12 hours, for 7 consecutive days.

B1: t-PA: tissue type plasminogen activator ateplase (t-PA), thrombolytic drug (protein, UniProt P00750 36-562, looked up)
Tissue-type plasminogen …: SYQVICRDEKTQMIYQQHQSWLRPVLRSNRVEYCWCNSGRAQCHSVPVKSCSEPRCFNGGTCQQALYFSDFVCQCPEGFAGKCCEIDTRATCYEDQGISYRGTWSTAESGAECTNWNSSALAQKPYSGRRPDAIRLGLGNHNYCRNPDRDSKPWCYVFKAGKYSSEFCSTPACSEGNSDCYFGNGSAYRGTHSLTESGASCLPWNSMILIGKVYTAQNPSAQALGLGKHNYCRNPDGDAKPWCHVLKNRRLTWEYCDVPSCSTCGLRQYSQPQFRIKGGLFADIASHPWQAAIFAKHRRSPGERFLCGGILISSCWILSAAHCFQERFPPHHLTVILGRTYRVVPGEEEQKFEVEKYIVHKEFDDDTYDNDIALLQLKSDSSRCAQESSVVRTVCLPPADLQLPDWTECELSGYGKHEALSPFYSERLKEAHVRLYPSSRCTSQHLLNRTVTDNMLCAGDTRSGGPQANLHDACQGDSGGPLVCLNDGRMTLVGIISWGLGCGQKDVPGVYTKVTNYLDWIRDNMRP
Take B1: the “efficacy after 90 days compared with after 30 days of treatment” value is “no significant difference in efficacy”. Also, the “Lsmeans mRS” value (90th day) is listed as 1.61.
